assay: soluble fraction after stress (log2 fold change); higher = more stays soluble; pooled small domains, quantitative proteomics; settings: stress: 75 degC
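Further: 20 min heating vs room temperature control held 20 min.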

| Sequence | soluble fraction (log2) |
| --- | --- |
| HMKLEKKWIEAVEKYRRYVLSTGIKHVQKPIEFENFRLGQWYADVRQSYRRGTLSKEKLLEIREINPDFPN | -2.17 |
| HMKLFGTPGSPFARKVRIVLEEKRIPHEYIIERGSAPGSRVPQYNPLGKVPTLVLDDGRGLYDSPVIVEYL | -0.531 |
| HMKLGYTVHGNVVTVKAVANGISLYNTIGQKVAESTDGQTVKAPAHGVYILSVQGKSGSRETAKIVI | -1.67 |
| HMKLHQDLQIKVIDAANNKVEFIDTATGTSLATRTLDVNGVSKARGFEATLYGVVEDNDVFHIA | 0.121 |
| HMKLIRIPFILTEGPDSQKITIDVDGDEEFRLGDVFEEDDKLWTVNQILVSGERKAKRSMAGEVMRISALR | -1.2 |
| HMKLNEQSMQVIDRIVDRHRGRPGPVKLMLHDVQKELGYIPFEAMEKIAAASGVSADEVYGVVTFYTQFTT | -0.919 |
| HMKLNETIAEARKRKGLTQEQLAQKLYVTRQAVSRWERGEVVPGIDMLKLIAITLEEPIVHLL | -1.64 |
| HMKLQIQNIEIDKKISELAEGVSAEKLPFLAKLIDRSKLLNDKGEINEDSVKAAIEEVVKAFPDFK | 0.0511 |
| HMKLRKINLIGIFGSKTAPSALVRLTNGRVLKVGLGELLDGGRVTAIGRSSLTYNKSGKSITLNMPI | -4.08 |
| HMKLRYRTQEELLGVAREYRRRGLPLSVIVIDFYHWTKFGDWKFDPAYWPDPVGMVRELRDMGVEAAV | -0.17 |
| HMKLSKKVTDFLAQMPSKSISPKMLANNLGLADDAGDYKHLLKTIAQLEESKAIEVTAAGNIALPQPE | -0.162 |
| HMKLSLKTQVKEYLLSYIRDKKLQPGDRLLTQRELAEMLHTSQKVAQMALNSLEEEGIIIRRLGSGSFLAR | -1.31 |
| HMKLTKPQEVFIQELLKGSSQYEAYLKAYPSKKTWKRNSIDTEASKLFKNAKIKQRYEELLYNIREE | -0.695 |
| HMKLTNNDFIRLKTFMYNNYGINLENKKTLIETRLAIVVKRLGFNDFKSYIDNLMRDKTGEQASIIVGKLT | -2.83 |
| HMKLTPKQQQIYDFISSFADEHGYPPSVREIAQAVNLKSPATVHFHLKGLREAGYISQAEGKTRAITI | -0.158 |
| HMKMDGESQRLLSLIKEQGGSLPIGDKSSPEAIYRLTQMSKKTFKMALGSLYKAKQVVLSPTEVRL | -1.45 |
| HMKMNFNEEEQKLLSEANVLVETNKTYTDDEVKGFSNKIVEHIMTFSKTDIPKVKSKFDPILFKI | -0.359 |
| HMKMTIEDLITQAKESNAAENYYEAFQLYSKAIDVLPNDPDLYSARGVVLFHLDRKEDSLIDMNKSVD | -0.17 |
| HMKMVEIDYGKFLTMLDTGKVKSVEIENNRIAINPSSSKDKNIYITGRMDDPELVDRLKNAKVEFTKVIP | -0.0753 |
| HMKNAYDLKMLVKDNDGNIERNMKYYFFLANGSKVEGITDDNGYTKTITTIQPEKADLHLINDELI | -1.61 |
| HMKNDIQLKHDVEEELQWDPAVDASRFAVQAKDGVVTLSGGVDTFADKHAAEEAIRRVAGVTALVIHVDV | -0.27 |
| HMKNEFRVYPNPANKEIVTFNQTQDIEVYDTLGKLVLKAKNTNTLDTKSFHSGIYFIKTGSGLTRKLVV | -1.09 |
| HMKNEQESIAQKLYEAALKNDFVTIQEIQSGGYRLRNDDLTHMRESGVQSNTLIAIQKIFGL | 0.404 |
| HMKNEQIFIVRPDAEGTRLDQWLAAQMASSEEAPSRMQIQRWIKAGLVEGQGTLNPARRIEAGESYTVKPG | 0.0684 |
| HMKNEYAMVIQVNGKLRGNMLVSADLEQKDIERMALDNEDIKRFISHENDVKKMIFVPKKLINIVT | -1.21 |
| HMKNIFDWLKQINYHKQPADSFTEKDWELFNSYMVHRFMSMNREFIEVVNYVQEMPPQEKILIYNIYREF | -2.16 |

| Sequence | soluble fraction (log2) |
| --- | --- |
| HMKNIINFIVKEDDNNKRVDMILANHDKSLSRTRVKNLILDSKLKINERIVQDPSIKTKLNDKIELEIVEP | 0.631 |
| HMKNIINLVIDGELHGKRIDAVIAQKNDSLSRTRIKNLVINGNLSINDEIVSDPSKKIYKDDKVSLTIPLP | -0.322 |
| HMKNIMRQWIELEPDQGKIRSKLYSLDRVVEETTNEVGMIKLLLEIDEKELNNLVSHNDIRLV | -0.425 |
| HMKNIRKQAIEAIDRIKNGNPIVISKNAKLIFKNIAKEANVSPTELHREFRDVMLYVNSLKAP | -0.346 |
| HMKNKVTVPKVEGMDKEEAIQALNEVGLGYKAVMQSSDSVAEGKVISQGTAAGKKVDKNTQIIITVSGG | 0.237 |
| HMKNLADNIVALRKKHGLSQEQFAEKIDVTRQAVSNWERRIATPDVETIDLIAKLFDTDLTALVNG | -0.342 |
| HMKNLKLVSNTDGIRIDSWLADEFEDYSRSYLRKLIDQDLVYVNGNKIKANYKLKKGDEISISIPEPE | -0.151 |
| HMKNLTERQQQIIALISGNPLITRAEIASAIGFSVKTIERELSILSEIVSYVGSKKGGHWEIQT | -2.66 |
| HMKNLTERQQRIIALISENPQTTRAEIAGAIGVATKTIERELTTLSNIVYYVGPKKGGHWEIIK | -1.51 |
| HMKNLTEVEYSEFLESIAQDRVSKVQVDGLIIRGEMNDGQRFETVQPQVTDKALIDDMVNHRVDFSGARP | 0.295 |
| HMKNMSLGERIKEQRKSSGLSQEKVAEFVGVSRQAVTKWETGQSAPSTENLFKLAEIFGTTVDILLA | -0.198 |
| HMKNNAIAPDQVVSLLKNEVNYNDDGRIEILDNNKNIRYNSKGELLTIEERVNEFLDANPHFRK | 0.0664 |
| HMKNSMANVQARREKILSAVDQSEPVAVEGLAQRFNVSITTLRRDLKALSDMGQVKWHHGLVERT | -0.229 |
| HMKNVADEVFEKMLNMIIEGDWKKGEMIPSENELREAFSVSRSTVRQAVQRLSALGIVRSRQGKGTYVEQV | -1.7 |
| HMKNYYELLGVAREASQDQIKKAYRKLARKYHPDVSKEADAETRMQELNVAYDTLSDAEKKREYDFQLDHP | 0.0883 |
| HMKPDDDMLLKILTKLFIQKQFVINSKDIFQYILKNTNRTYENIINIVNRLDTLSIEKKRQLTIPLIKEI | -0.585 |
| HMKPEQIELTFSGTTAMRLDKFLAENQPGLSRAKLQAIISSGSVEVNGKVITKQAFKLDPGDLVKALIPE | -1.23 |
| HMKPGWEDIFRMNQIQLEDAVRTVNRDDTLAPTKKAYLIQNLLASRWIVGNQLQAQKDKTTE | -0.126 |
| HMKPGYVIQVNGTVTKIQSGLVYVKTPAAQYTLMRKYAPADAAVGDRVSLWINEEGMVIDVHGK | -2.03 |
| HMKPKDILLPNFTNLTLDEAKAKAEEVKLNLNVSEEKYDVQIEEGKIISQDPKYQPNYTVKEGSTVNVVVS | ≥ 1.04 |
| HMKPLIIPLELMQRLSSDKQLEAGFNRFSKSKQHEFAAYIAAAKRVETKVKRLEKIIPLILSGEGLNDR | -2.35 |
| HMKPLRPVHLEIQTHRLSPVGILRSSFRQAGKVMHSNHGRITGLNLEQLKLIQAAFAGEALPK | -0.158 |
| HMKPQIRRHEKITALVREHGFMSVEQLARELEVTPQTIRRDIGILSAENVLRRYHGGAALGD | -0.941 |
| HMKPSNLTSDERTQLLAQLKTAMGSDQYNQLRRQVGEEKLLEYVLDNVPGIQEEILGNRAVQENIDLH | 0.0107 |
| HMKPSTVSVPDVSGDKLSTAKMIIRKSGLKVGDVQKIEDDNVGAGKVVRTNPSAGSKKREGSSVDIFVASA | -0.0331 |
| HMKPTVKGHFTRKESNVGGYADVRGWGVAGTPSMMANQSKDTRRFSTLIVPGRSVNVHPSPTKEAIIWWQS | -0.224 |

| Sequence | soluble fraction (log2) |
| --- | --- |
| HMKPTVKKLLAALPELRSGQPLHLSVATRKLRDAGLLGKNASSPTLFRNYVAQFELIPENQPNAVRYR | -0.786 |
| HMKPVSEMDNMEWVREQYFQNMIYEIGEWVKDKKTGIVGEIVKRGTNYVTIVQEDFSLHKIWLEDLETTE | -0.428 |
| HMKQDYYSILGVMRDASQEEIKRAYLDAAQRLHPDRNTSAGDTEMFLDVQQAYEVLSNPKRRAQYDATLP | 0.383 |
| HMKQEFEMGLPNGVGEQMLAHAIEKFDVKLEHSEFGPKLIGTYEELEKAKVFLYEAIEARLNQLE | 0.279 |
| HMKQISNTDELETMVKKIIDDNEEQVNKYRGGNEKLFGWFVGQAMKNTGGTANPKVVNEILSKLLK | -0.0646 |
| HMKQLLHLVIGGELKDVRGIEFEDLSKIDFVGAFPSYKAAYDAWKNAAQRTVDNAEMRYFILHAHR | -1.92 |
| HMKQLRVLGIVKAGSILKNSDGSIEFVIEDSGKSLLVKYKGVIPDIFKDGVEAVVEGDLRGSVFNADKLF | -1.14 |
| HMKQMNETQQKAFEIYLDSATFETDYKPISEEQLAAKLDALGLKGSSSSINRWKKDFNWAQALQNKVTLAM | -0.166 |
| HMKQQNFADLAGRFVFNADNEVVFNFGKHKNVPVATVLKNEPGYYGWMMGGDFPLFTKKILKQIKEA | -1.05 |
| HMKQTFGAMLAALRKEKGMTQLELAEQMGVTDKAVSKWERDLSFPDVTSLPRLAEILEVSVDELMQ | -0.146 |
| HMKQVNVVSVIGQSEANAKTTLTGLGLKVNVAYEEDTSKADGIVLKQSLEGGKTVNEGTTITITVNKIA | 0.579 |
| HMKQVSDTGAIDAAIREVMDANPDKVAEYRSGKDKLFGFFVGQIMRAMAGKAAPVVVNDRLKALLD | 0.123 |
| HMKQVTVGGTINAGGARIYADSYGNGGGRQTFGSDPIYTVLQERNGYILTRWHKLSSGYTGWFKKSDVSA | -0.917 |
| HMKQYSFEISKADFKKISENFNFKIINEINDSLIISLNDKNINLDELLIFFVERKIKVRSIENI | -3.69 |
| HMKREELTQQTKQNLREAFWSLYIQKPIEKITVKEITDIAGYNRGTFYLYYKDTYDLLAKIE | -0.279 |
| HMKRLLLPGDLAGVRRHLLDRENSFHILRVLRLARGSTIEAMDDAGNRFSATLAGVKAGRALFDLAAKI | -1.75 |
| HMKRLPAQMGGGDGVLRVPGLNNFVYVTIADKTLPAFNNRVPPKKGLRIWVGYSPEEPNLFQVLSTRTD | -1.83 |
| HMKRLPMRKIRDVLRLSADGLSTRKIGVSLTIGRTTVQAYLDRAAEVDLSWPLPPEMSDTDLERLIYPR | -3.14 |
| HMKRNLVSVLDHIVGIGPKRRQSLRTHFGSLEKIKEASVEELAAAPGMNRTSAEAVRHFFDAQQELRGK | 0.727 |
| HMKRRSVIVSVVRAQVRQSADEAAAVVFEAEKNVSLDYLETMPGGWVKVRHRDGQTGFVRVNQIWG | -1.59 |
| HMKRSFGYIRLLPSKRYQASYIGPDSQRHAAPETFTRKMDAEGWLSAERRLIEWDQWTSPEQRAAQARLD | -0.663 |
| HMKRTRLEEAMDWLREQLNDGPVAYATLKDEAPKAEITLSTLRAAGEALRVDKQKKGVQWGGWTWSLPR | 0.00234 |
| HMKRVTRQRTEILRVIDESERPLGPQEILQAGREAIPSLSIATIYRTLRDLLAEELIKTVALPGDSPRYES | -1.33 |
| HMKSARDDILSALDKAGEPLSMKDIAELSGRKLSTLRAQMTRLVAEGAVQATAAAHSPDRKYRK | -0.319 |

— the domain aggregation screens of Martell et al. (2025)
